According to patent publication US20120058906A1 (published 2012):
Blank lines part the entries; values can stand above or below the binder they belong to.

Tests used:
[1] = biological target: T1, rHuman IGF-1 sR (IGF-1 sR), CF (R&D Systems Cat#391-GR) (human, UniProt P08069 31-932); test: MSD ECL multi-spot assay, antigen spotted on plate, Fab 0.93 uM; blank spot 4760
T1 construct: Bought soluble receptor; also called insulin-like growth factor-1 soluble receptor; IGF-R1

[2] = biological target: T2, rHuman Erythropoietin R/Fc Chimera, CF (R&D Systems Cat#963-ER) (human, UniProt P19235 25-250); test: as above
T2 construct: Bought protein; also called EPOR; EPO R/Fc; Fc part of the bought chimera not given
T2 sequence: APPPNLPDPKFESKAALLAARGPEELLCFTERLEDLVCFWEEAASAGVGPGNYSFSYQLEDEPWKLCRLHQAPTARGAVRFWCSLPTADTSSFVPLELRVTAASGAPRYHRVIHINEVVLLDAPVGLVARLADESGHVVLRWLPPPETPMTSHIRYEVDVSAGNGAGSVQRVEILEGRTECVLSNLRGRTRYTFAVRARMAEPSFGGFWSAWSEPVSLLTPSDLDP

[3] = biological target: T3, rHuman Notch-1/Fc Chimera, CF (R&D Systems Cat#3647-TK) (human, UniProt P46531 19-526); test: as above
T3 construct: Bought protein; Fc part of the bought chimera not given

[4] = biological target: T1, rHuman IGF-1 sR (IGF-1 sR), CF (R&D …); test: MSD ECL multi-spot assay, antigen spotted on plate, Fab 1.57 uM; blank spot 797
[5] = biological target: T4, Recombinant Human DLL4 (R&D Systems Cat#1506-D4/CF) (human, UniProt Q9NR61 27-524); test: as above
T4 construct: Bought protein; also called delta-like protein 4; rHuman DLL4

[6] = biological target: T5, rHuman CD44/Fc Chimera, CF (R&D Systems Cat#3660-CD) (human, UniProt P16070 21-220); test: as above
T5 construct: Bought protein; Fc part of the bought chimera not given

[7] = biological target: T6, rHuman ErbB2/Fc Chimera, CF (R&D Systems Cat#1129-ER) (human, UniProt P04626 23-652); test: as above
T6 construct: Bought protein; also called HER2/neu; human epidermal growth factor 2 receptor; Fc part of the bought chimera not given

[8] = biological target: T7, rHuman HGF R/c-MET/Fc Chimera, CF (R&D Systems Cat#358-MT/CF) (human, UniProt P08581 25-932); test: as above
T7 construct: Bought protein; also called HGF R/Fc; hepatocyte growth factor receptor; Fc part of the bought chimera not given

[9] = biological target: T2, rHuman Erythropoietin R/Fc Chimera, CF …; test: as above
[10] = biological target: T3, rHuman Notch-1/Fc Chimera, CF (R&D …); test: as above
[11] = biological target: T1, rHuman IGF-1 sR (IGF-1 sR), CF (R&D …); test: MSD ECL multi-spot assay, antigen spotted on plate, Fab 0.51 uM; blank spot 1393
[12] = biological target: T4, Recombinant Human DLL4 (R&D Systems …); test: as above
[13] = biological target: T5, rHuman CD44/Fc Chimera, CF (R&D Systems …); test: as above
[14] = biological target: T6, rHuman ErbB2/Fc Chimera, CF (R&D …); test: as above
[15] = biological target: T7, rHuman HGF R/c-MET/Fc Chimera, CF (R&D …); test: as above
[16] = biological target: T4, Recombinant Human DLL4 (R&D Systems …); test: MSD ECL multi-spot assay, antigen spotted on plate, Fab 0.48 uM; blank spot 2877;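 note: blank spot per well as comparator with Hit at signal to blank ratio of 4 or more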
[17] = biological target: T3, rHuman Notch-1/Fc Chimera, CF (R&D …); test: as above
[18] = biological target: T1, rHuman IGF-1 sR (IGF-1 sR), CF (R&D …); test: MSD ECL multi-spot assay, antigen spotted on plate, Fab 0.13 uM; blank spot 786
[19] = biological target: T4, Recombinant Human DLL4 (R&D Systems …); test: as above
[20] = biological target: T5, rHuman CD44/Fc Chimera, CF (R&D Systems …); test: as above
[21] = biological target: T8, rHuman EGF R/Fc Chimera, CF (R&D Systems Cat#344-ER) (human, UniProt P00533 25-645); test: as above
T8 construct: Bought protein; also called epidermal growth factor receptor; Fc part of the bought chimera not given

[22] = biological target: T6, rHuman ErbB2/Fc Chimera, CF (R&D …); test: as above
[23] = biological target: T7, rHuman HGF R/c-MET/Fc Chimera, CF (R&D …); test: as above
[24] = biological target: T2, rHuman Erythropoietin R/Fc Chimera, CF …; test: as above
[25] = biological target: T3, rHuman Notch-1/Fc Chimera, CF (R&D …); test: as above
[26] = biological target: T1, rHuman IGF-1 sR (IGF-1 sR), CF (R&D …); test: MSD ECL multi-spot assay, antigen spotted on plate, Fab 0.06 uM; blank spot 842
[27] = biological target: T4, Recombinant Human DLL4 (R&D Systems …); test: as above
[28] = biological target: T5, rHuman CD44/Fc Chimera, CF (R&D Systems …); test: as above
[29] = biological target: T6, rHuman ErbB2/Fc Chimera, CF (R&D …); test: as above
[30] = biological target: T9, rHuman P-Cadherin/Fc Chimera, CF (R&D Systems Cat#861-PC) (human, UniProt P22223 108-654); test: MSD ECL multi-spot assay, antigen spotted on plate, Fab 0.28 uM; blank spot 1773
T9 construct: Bought protein; also called CDH3; Fc part of the bought chimera not given

B5: Fab VH1-8_IGHD2-2*01_IGHJ6*01 & L12_IGKJ1*01 (Fab, V domains shown)
VH: QVQLVQSGAEVKKPGASVKVSCKASGYTFTSYDINWVRQATGQGLEWMGWMNPNSGNTGYAQKFQGRVTMTRNTSISTAYMELSSLRSEDTAVYYCARGGYCSSTSCYADYYYYYGMDVWGQGTTVTVSS
VL: not shown
ECL signal [18]: 1170
ECL signal [19]: 9850
ECL signal [20]: 932
ECL signal [21]: 859
ECL signal [22]: 840
ECL signal [23]: 969
ECL signal [24]: 1110
ECL signal [25]: 1320

B6: Fab VH1-3_IGHD4-23*01_IGHJ4*01 & L12_IGKJ1*01 (Fab, V domains shown)
VH: QVQLVQSGAEVKKPGASVKVSCKASGYTFTSYAMHWVRQAPGQRLEWMGWSNAGNGNTKYSQEFQGRVTITRDTSASTAYMELSSLRSEDMAVYYCARDDYGGNSDYFDYWGQGTLVTVSS
VL: not shown
ECL signal [26]: 2320
ECL signal [27]: 13600
ECL signal [28]: 1680
ECL signal [29]: 1570

B7: Fab VH1-46_IGHD2-15*01_IGHJ2*01 & L12_IGKJ1*01 (Fab, V domains shown)
VH: QVQLVQSGAEVKKPGASVKVSCKASGYTFTSYYMHWVRQAPGQGLEWMGIINPSGGSTSYAQKFQGRVTMTRDTSTSTVYMELSSLRSEDTAVYYCAREGYCSGGSCYSYWYFDLWGRGTLVTVSS
VL: not shown
ECL signal [30]: 8060

Continued, values first:

ECL signal [1]: 13900
ECL signal [2]: 16700
ECL signal [3]: 23700
B1: Fab VH1-46_IGHD3-10*01_IGHJ4*01 & L12_IGKJ1*01 (Fab, V domains shown)
VH: QVQLVQSGAEVKKPGASVKVSCKASGYTFTSYYMHWVRQAPGQGLEWMGIINPSGGSTSYAQKFQGRVTMTRDTSTSTVYMELSSLRSEDTAVYYCAREYYYGSGSYYNDYFDYWGQGTLVTVSS
VL: not shown

ECL signal [4]: 985
ECL signal [5]: 1500
ECL signal [6]: 836
ECL signal [7]: 904
ECL signal [8]: 1040
ECL signal [9]: 6390
ECL signal [10]: 1260
B2: Fab VH1-46_IGHD3-10*01_IGHJ4*01 & O1_IGKJ1*01 (Fab, V domains shown)
VH: QVQLVQSGAEVKKPGASVKVSCKASGYTFTSYYMHWVRQAPGQGLEWMGIINPSGGSTSYAQKFQGRVTMTRDTSTSTVYMELSSLRSEDTAVYYCAREYYYGSGSYYNDYFDYWGQGTLVTVSS
VL: DIVMTQTPLSLPVTPGEPASISCRSSQSLLDSDDGNTYLDWYLQKPGQSPQLLIYTLSYRASGVPDRFSGSGSGTDFTLKISRVEAEDVGVYYCMQRIEFPSWTFGQGTKVEIK
notes: Fab from E. coli; VH joined to the CH1 (Flag and His tags) of Plasmid A, VL to the kappa CL of Plasmid C

ECL signal [11]: 1740
ECL signal [12]: 5650
ECL signal [13]: 1880
ECL signal [14]: 1700
ECL signal [15]: 1740
B3: Fab VH4-34_IGHD7-27*01_IGHJ4*01 & L5_IGKJ1*01 (Fab, V domains shown)
VH: QVQLQQWGAGLLKPSETLSLTCAVYGGSFSGYYWSWIRQPPGKGLEWIGEINHSGSTNYNPSLKSRVTISVDTSKNQFSLKLSSVTAADTAVYYCARANWGDYFDYWGQGTLVTVSS
VL: DIQMTQSPSSVSASVGDRVTITCRASQGISSWLAWYQQKPGKAPKLLIYAASSLQSGVPSRFSGSGSGTDFTLTISSLQPEDFATYYCQQANSFPPWTFGQGTKVEIKR
notes: as for B2

ECL signal [16]: 13700
ECL signal [17]: 12800
B4: Fab VH1-46_IGHD6-13*01_IGHJ4*01 & A27_IGKJ1*01 (Fab, V domains shown)
VH: QVQLVQSGAEVKKPGASVKVSCKASGYTFTSYYMHWVRQAPGQGLEWMGIINPSGGSTSYAQKFQGRVTMTRDTSTSTVYMELSSLRSEDTAVYYCAREGYSSSWYDYFDYWGQGTLVTVSS
VL: not shown
notes: as for B2
